Experimental data: patent US20240402190A1

Target: SERCA1a, mouse (endogenous, mouse myotubes) (mouse) (UniProt Q8R429)
Assay: cell-based or functional assay

UniProt Q8R429, sequence (Q8R429 whole entry): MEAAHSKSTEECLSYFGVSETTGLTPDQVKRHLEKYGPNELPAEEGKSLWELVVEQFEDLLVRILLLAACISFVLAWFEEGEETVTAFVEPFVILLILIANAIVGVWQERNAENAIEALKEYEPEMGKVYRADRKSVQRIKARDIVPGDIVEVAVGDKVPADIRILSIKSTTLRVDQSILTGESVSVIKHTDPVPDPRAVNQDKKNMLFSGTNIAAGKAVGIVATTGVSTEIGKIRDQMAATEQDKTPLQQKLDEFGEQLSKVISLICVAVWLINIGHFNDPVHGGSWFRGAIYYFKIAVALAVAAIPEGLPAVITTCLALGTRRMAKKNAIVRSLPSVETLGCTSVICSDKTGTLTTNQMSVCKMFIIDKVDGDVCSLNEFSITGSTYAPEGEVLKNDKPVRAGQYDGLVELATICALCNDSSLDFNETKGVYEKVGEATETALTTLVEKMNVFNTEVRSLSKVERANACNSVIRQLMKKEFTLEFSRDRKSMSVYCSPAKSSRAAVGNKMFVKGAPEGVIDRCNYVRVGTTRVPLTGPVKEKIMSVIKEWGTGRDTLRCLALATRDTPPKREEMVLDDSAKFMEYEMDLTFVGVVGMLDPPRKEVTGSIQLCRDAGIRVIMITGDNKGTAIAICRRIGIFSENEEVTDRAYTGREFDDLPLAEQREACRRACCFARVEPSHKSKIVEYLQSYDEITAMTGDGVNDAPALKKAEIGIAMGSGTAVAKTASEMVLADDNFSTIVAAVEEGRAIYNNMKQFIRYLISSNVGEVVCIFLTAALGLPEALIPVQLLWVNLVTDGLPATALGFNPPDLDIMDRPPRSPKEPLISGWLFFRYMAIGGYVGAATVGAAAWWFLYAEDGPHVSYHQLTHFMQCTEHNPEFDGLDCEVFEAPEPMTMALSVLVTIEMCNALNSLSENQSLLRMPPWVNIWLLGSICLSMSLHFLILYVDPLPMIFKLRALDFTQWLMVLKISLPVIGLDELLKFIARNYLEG

| Caffeine response (normalized ratio to vector control) | KCl response (normalized ratio to vector control) | Releasable Ca^2+ level from SR (normalized ratio to vector control) | Substance |
| --- | --- | --- | --- |
| 0.97 | 0.94 | 0.99 | NHL-Del (TRIM32 lacking the NHL repeat) expressed in mouse myotubes (from UniProt Q13049 1-357) |
| 1.22 | 1.27 | 1.48 | wild-type TRIM32 expressed in mouse myotubes (from UniProt Q13049 1-653) |
